# Data: US20250042994A1 (HAINAN SIMCERE ZAIMING PHARMACEUTICAL, published 2025)
# T1: Human CD19-his protein (human, UniProt P15391 20-291)
# T1 construct: bought protein; also called recombinant human CD19-His; CD19 full-length protein; not shown: His tag
# T1 sequence (looked up): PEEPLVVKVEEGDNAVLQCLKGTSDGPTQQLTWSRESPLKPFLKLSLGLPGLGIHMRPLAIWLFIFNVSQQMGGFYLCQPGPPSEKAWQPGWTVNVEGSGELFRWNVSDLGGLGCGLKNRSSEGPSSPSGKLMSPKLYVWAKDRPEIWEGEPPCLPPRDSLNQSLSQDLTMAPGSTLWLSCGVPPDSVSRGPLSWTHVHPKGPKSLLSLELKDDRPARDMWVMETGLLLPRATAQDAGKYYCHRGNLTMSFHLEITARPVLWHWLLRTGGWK
# T2: human CD19 on Raji cells (human, UniProt P15391 20-556)
# T2 construct: whole, on cells
# T2 sequence (looked up): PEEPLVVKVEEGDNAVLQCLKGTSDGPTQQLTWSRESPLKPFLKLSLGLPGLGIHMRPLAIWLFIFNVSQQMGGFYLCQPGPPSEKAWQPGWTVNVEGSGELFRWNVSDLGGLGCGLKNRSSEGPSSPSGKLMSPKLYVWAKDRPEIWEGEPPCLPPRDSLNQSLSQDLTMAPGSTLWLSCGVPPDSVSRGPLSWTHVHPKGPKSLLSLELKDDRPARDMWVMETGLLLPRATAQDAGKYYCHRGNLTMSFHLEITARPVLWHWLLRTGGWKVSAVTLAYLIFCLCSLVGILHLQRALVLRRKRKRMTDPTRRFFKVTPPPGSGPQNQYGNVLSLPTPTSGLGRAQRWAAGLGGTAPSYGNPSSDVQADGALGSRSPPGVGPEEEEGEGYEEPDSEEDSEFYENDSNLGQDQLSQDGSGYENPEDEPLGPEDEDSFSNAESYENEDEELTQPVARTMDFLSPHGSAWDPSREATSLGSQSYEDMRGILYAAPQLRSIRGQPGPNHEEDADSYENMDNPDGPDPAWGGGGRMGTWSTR
# T3: human CD19 on CHO-K1-human CD19 cells (human, UniProt P15391 20-556)
# T3 construct: whole, on cells; also called CHO-K1-human CD19-2C8
# T3 sequence (looked up): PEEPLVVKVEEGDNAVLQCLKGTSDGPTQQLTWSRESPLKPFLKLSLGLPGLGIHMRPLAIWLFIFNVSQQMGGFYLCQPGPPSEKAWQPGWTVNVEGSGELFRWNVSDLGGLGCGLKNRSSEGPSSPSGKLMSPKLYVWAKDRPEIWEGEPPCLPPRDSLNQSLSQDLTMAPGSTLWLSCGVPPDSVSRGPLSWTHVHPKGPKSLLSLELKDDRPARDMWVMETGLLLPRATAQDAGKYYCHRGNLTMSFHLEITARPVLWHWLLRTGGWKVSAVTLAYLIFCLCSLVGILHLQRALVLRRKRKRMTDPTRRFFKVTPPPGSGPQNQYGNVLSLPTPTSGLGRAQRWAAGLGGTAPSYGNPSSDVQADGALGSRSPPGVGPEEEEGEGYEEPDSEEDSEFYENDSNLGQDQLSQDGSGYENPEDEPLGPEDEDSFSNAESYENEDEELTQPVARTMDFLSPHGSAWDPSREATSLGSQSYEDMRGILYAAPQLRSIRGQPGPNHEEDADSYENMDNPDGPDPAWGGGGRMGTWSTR
# T4: human CD19 exon1-3-His tag protein (human, UniProt P15391 20-186, limits assumed)
# T4 construct: membrane-distal part of the extracellular region, made in HEK293E cells; not shown: His tag
# T4 sequence (looked up): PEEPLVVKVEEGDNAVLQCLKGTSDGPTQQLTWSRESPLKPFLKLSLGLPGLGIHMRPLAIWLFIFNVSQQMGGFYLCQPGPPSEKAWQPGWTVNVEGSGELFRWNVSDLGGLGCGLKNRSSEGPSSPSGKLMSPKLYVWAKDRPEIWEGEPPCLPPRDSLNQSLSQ
# Legend:
# [1] = target: T1, Human CD19-his protein; test: ELISA, coated human CD19-His
# Description: Human CD19-his protein (purchased from ACROBiosystems, catalog number: CD9-H52H2) was diluted with PBS to a final concentration of 4 μg/mL, and then added to a 96-well ELISA plate at 100 μl/well. The plate was sealed with a plastic film and incubated overnight at 4° C., the plate was washed 2 times with PBS the next day, and then a blocking solution [PBS+2% (w/w) BSA] was added for blocking at room temperature for 2 h. The blocking solution was poured off, and 100 nM gradiently diluted CD19 chimeric antibody or control antibody was added at 50 μl/well. After incubation at 37° C. for 2 h, the plate was washed 3 times with PBS. […] TMB substrate was added at 50 μl/well, and incubated at room temperature for 10 min, and then a stop solution (1.0 N HCl) was added at 50 μl/well. The OD450 nm values were read by an ELISA microplate reader (Multimode Plate Reader, EnSight, purchased from Perkin Elmer).
# [2] = target: T2, human CD19 on Raji cells; test: FACS on Raji cells
# Description: (§1) After the digestion was terminated, the cells were washed 2 times with a PBS buffer; and for suspension cell Raji, the supernatant of the medium was discarded by directly centrifugation, and the cell pellet was washed 2 times with PBS. After counting the cells in the previous step, the cell pellet was resuspended with [PBS+2% (w/w) BSA] blocking solution to 2×10⁶ cells/ml, and added to a 96-well FACS reaction plate at 50 μl/well, and then the sample to be tested was added at 50 μl/well, and incubated on ice for 2 h. The obtained mixture was centrifuged and washed 3 times with a PBS buffer. […] The obtained mixture was centrifuged and washed 5 times with a PBS buffer, and FACS (FACS Canto™, purchased from BD Company) was used for detection and result analysis. Data analysis was performed by software (FlowJo) to obtain the mean fluorescence intensity (MFI) of the cells. And then software (GraphPad Prism8) was used for analysis, data fitting, and EC50 value calculation. […] The same method was used to detect the binding of the chimeric antibodies to endogenous CD19-negative cells, MoLT4 cells (purchased from ATCC, CRL-1582), and CHO-K1 cells.
# [3] = target: T3, human CD19 on CHO-K1-human CD19 cells; test: FACS on CHO-K1-human CD19 cells
# Description: as §1
# [4] = target: T1, Human CD19-his protein; test: ELISA on coated human CD19-His
# [5] = target: T1, Human CD19-his protein; test: SPR Biacore, method of example 7.1, human CD19-His
# Description: A sample buffer and a running buffer were HBS-EP+ (10 mM HEPES, 150 mM NaCl, 3 mM EDTA and 0.05% surfactant P20) (GE Healthcare; BR-1006-69). The flow-through cell was set to 25° C. The sample block was set to 16° C. Both were pretreated with the running buffer. In each cycle, an antibody to be detected was first captured with a Protein A chip, and then a single concentration of CD19 antigen protein was injected. The binding and dissociation processes of the antibody and the antigen protein were recorded, and finally Glycine pH 1.5 (GE Healthcare; BR-1003-54) was used to complete chip regeneration. The binding was measured by injecting different concentrations of recombinant human CD19-His proteins in a solution for 240 s with a flow rate of 30 μl/min. The concentration started from 200 nM (see the detailed results for the actual concentration in the test) and was diluted at 1:1, making a total of 5 concentrations. The dissociation phase was monitored for up to 600 s and was triggered by switching from sample solution to running buffer. The surface was regenerated by washing with a 10 mM glycine solution (pH 1.5) for 30 s at a flow rate of 30 μl/min. Bulk refractive index difference was corrected by subtracting the response obtained from the goat anti-human Fc surface. Blank injection was also subtracted (=double reference). For calculation of apparent KD and other kinetic parameters, Langmuir 1:1 model was used.
# SPR (biacore) detection and data analysis were performed according to the method in example 7.1.
# [6] = target: T4, human CD19 exon1-3-His tag protein; test: ELISA, coated human CD19 exon 1-3-His
binder,measurement,setting,value
"F3.121.4-L2H2 (antibody, mouse IgG1, kappa, V domains shown, humanized antibody of F3.121.4, VL2+VH2, murine IgG1 constant regions) VH: EVQLVQSGAEVKKPGASVKVSCKASGYTFTNYWMHWVRQAPGQGLEWMGEIDPSDNYANYNQEFQGRVTITVDKSASTAYMELSSLRSEDTAVYYCARHDGYFGALDYWGQGTTVTVSS VL: EIVLTQSPDFQSVTPKEKVTITCSASSSISSNYLHWYQQKPDQSPKLLIKRTSNLASGVPSRFSGSGSGTDFTLTINSLEAEDAATYYCQQASSIPRMFTFGQGTKLEIKR",OD450 at 0.0001 nM,[1],0.1 OD450
same,OD450 at 0.001 nM,[1],0.13 OD450
same,OD450 at 0.01 nM,[1],0.37 OD450
same,OD450 at 0.10 nM,[1],1.51 OD450
same,OD450 at 1.00 nM,[1],2.42 OD450
same,OD450 at 10 nM,[1],2.41 OD450
same,OD450 at 100 nM,[1],2.55 OD450
same,EC50,[2],410 pM
same,Maximum mean fluorescence intensity,[2],30100 MFI
same,EC50,[3],1140 pM
same,Maximum mean fluorescence intensity,[3],52200 MFI
same,EC50 (read off the curve),[4],~50 pM
same,Kd,[5],1460 pM
same,koff,[5],0.000195 s⁻¹
same,kon,[5],134000 M⁻¹ s⁻¹
same,OD450 at 0.0001 nM,[6],0.05 OD450
same,OD450 at 0.001 nM,[6],0.05 OD450
same,OD450 at 0.01 nM,[6],0.05 OD450
same,OD450 at 0.10 nM,[6],0.05 OD450
same,OD450 at 1.00 nM,[6],0.05 OD450
same,OD450 at 10 nM,[6],0.05 OD450
same,OD450 at 100 nM,[6],0.09 OD450
"F3.121.4-L2H1 (antibody, mouse IgG1, kappa, V domains shown, humanized antibody of F3.121.4, VL2+VH1, murine IgG1 constant regions) VH: EVQLVQSGAEVKKPGASVKVSCKASGYTFTNYWMHWVRQAPGQRLEWMGEIDPSDNYANYNQEFQGRVTITVDKSASTAYMELSSLRSEDTAVYYCARHDGYFGALDYWGQGTTVTVSS VL: EIVLTQSPDFQSVTPKEKVTITCSASSSISSNYLHWYQQKPDQSPKLLIKRTSNLASGVPSRFSGSGSGTDFTLTINSLEAEDAATYYCQQASSIPRMFTFGQGTKLEIKR",OD450 at 0.0001 nM,[1],0.1 OD450
same,OD450 at 0.001 nM,[1],0.13 OD450
same,OD450 at 0.01 nM,[1],0.38 OD450
same,OD450 at 0.10 nM,[1],1.52 OD450
same,OD450 at 1.00 nM,[1],2.42 OD450
same,OD450 at 10 nM,[1],2.45 OD450
same,OD450 at 100 nM,[1],2.57 OD450
same,EC50,[2],380 pM
same,Maximum mean fluorescence intensity,[2],29100 MFI
same,EC50,[3],1080 pM
same,Maximum mean fluorescence intensity,[3],53200 MFI
same,EC50 (read off the curve),[4],~50 pM
same,Kd,[5],1430 pM
same,koff,[5],0.000186 s⁻¹
same,kon,[5],130000 M⁻¹ s⁻¹
same,OD450 at 0.0001 nM,[6],0.05 OD450
same,OD450 at 0.001 nM,[6],0.05 OD450
same,OD450 at 0.01 nM,[6],0.05 OD450
same,OD450 at 0.10 nM,[6],0.05 OD450
same,OD450 at 1.00 nM,[6],0.05 OD450
same,OD450 at 10 nM,[6],0.05 OD450
same,OD450 at 100 nM,[6],0.09 OD450
"F3.121.4-L1H4 (antibody, mouse IgG1, kappa, humanized antibody of F3.121.4, VL1+VH4, murine IgG1 constant regions) heavy: EVQLQQSGAEVKKPGASVKVSCKASGYTFTNYWMHWVRQRPGQGLEWMGEIDPSDNYANYNQEFQGRVTITVDKSASTAYMELSSLRSEDTAVYYCARHDGYFGALDYWGQGTTVTVSSAKTTPPSVYPLAPGSAAQTNSMVTLGCLVKGYFPEPVTVTWNSGSLSSGVHTFPAVLQSDLYTLSSSVTVPSSTWPSETVTCNVAHPASSTKVDKKIVPRDCGCKPCICTVPEVSSVFIFPPKPKDVLTITLTPKVTCVVVDISKDDPEVQFSWFVDDVEVHTAQTQPREEQFNSTFRSVSELPIMHQDWLNGKEFKCRVNSAAFPAPIEKTISKTKGRPKAPQVYTIPPPKEQMAKDKVSLTCMITDFFPEDITVEWQWNGQPAENYKNTQPIMDTDGSYFVYSKLNVQKSNWEAGNTFTCSVLHEGLHNHHTEKSLSHSPGK light: EIVLTQSPATLSLSPGERATLSCSASSSISSNYLHWYQQKPGQAPRFLIYRTSNLASGIPARFSGSGSGTDFTLTISSLEPEDFAVYYCQQASSIPRMFTFGQGTKLEIKRADAAPTVSIFPPSSEQLTSGGASVVCFLNNFYPKDINVKWKIDGSERQNGVLNSWTDQDSKDSTYSMSSTLTLTKDEYERHNSYTCEATHKTSTSPIVKSFNRNEC",OD450 at 0.0001 nM,[1],0.1 OD450
same,OD450 at 0.001 nM,[1],0.13 OD450
same,OD450 at 0.01 nM,[1],0.39 OD450
same,OD450 at 0.10 nM,[1],1.56 OD450
same,OD450 at 1.00 nM,[1],2.51 OD450
same,OD450 at 10 nM,[1],2.55 OD450
same,OD450 at 100 nM,[1],2.67 OD450
same,EC50,[2],440 pM
same,Maximum mean fluorescence intensity,[2],31600 MFI
same,EC50,[3],1190 pM
same,Maximum mean fluorescence intensity,[3],54700 MFI
same,EC50 (read off the curve),[4],~50 pM
same,Kd,[5],0.205 pM
same,koff,[5],1.86e-08 s⁻¹
same,kon,[5],91100 M⁻¹ s⁻¹
same,OD450 at 0.0001 nM,[6],0.05 OD450
same,OD450 at 0.001 nM,[6],0.05 OD450
same,OD450 at 0.01 nM,[6],0.05 OD450
same,OD450 at 0.10 nM,[6],0.05 OD450
same,OD450 at 1.00 nM,[6],0.05 OD450
same,OD450 at 10 nM,[6],0.05 OD450
same,OD450 at 100 nM,[6],0.08 OD450
